{"source": "paper PMC11237949", "about": "“Structure and dynamics of the staphylococcal pyridoxal 5-phosphate synthase complex reveal transient interactions at the enzyme interface” (The Journal of Biological Chemistry, 2024)", "molecules": {"B1": {"name": "Staphylococcus aureus Pdx1 (PLP synthase subunit) (enzyme, S. aureus, UniProt A5IQ72 1-295, looked up)", "chain": "MSKIIGSDRVKRGMAEMQKGGVIMDVVNAEQARIAEEAGAVAVMALERVPSDIRAAGGVARMANPKIVEEVMNAVSIPVMAKARIGHITEARVLEAMGVDYIDESEVLTPADEEYHLRKDQFTVPFVCGCRNLGEAARRIGEGAAMLRTKGEPGTGNIVEAVRHMRQVNSEVSRLTVMNDDEIMTFAKDIGAPYEILKQIKDNGRLPVVNFAAGGVATPQDAALMMELGADGVFVGSGIFKSEDPEKFAKAIVQATTHYQDYELIGRLASELGTAMKGLDINQLSLEERMQERGW", "notes": "Pdx1 of S. aureus; Cloned into both pETM11/LIC (6xHis-TEV) and pETTRXA-1a/LIC (6xHis-TRX-TEV); Forms hexamers or dodecamers depending on the buffer; also called SaPdx1; source: E. coli Rosetta (DE3), purified (Ni-NTA, TEV cleavage, second Ni-NTA, SEC on Superdex 200); not shown: His6, N-terminal, cleaved"}, "B2": {"name": "Staphylococcus aureus Pdx2 (glutaminase subunit), wild type (enzyme, S. aureus, UniProt A5IQ73 1-186, looked up)", "chain": "MKIGVLALQGAVREHIRHIELSGHEGIAVKKVEQLEEIEGLILPGGESTTLRRLMNLYGFKEALQNSTLPMFGTCAGLIVLAQDIVGEEGYLNKLNITVQRNSFGRQVDSFETELDIKGIATDIEGVFIRAPHIEKVGQGVDILCKVNEKIVAVQQGKYLGVSFHPELTDDYRVTDYFINHIVKKA"}, "B3": {"name": "Staphylococcus aureus Pdx2 H165N (enzyme)", "chain": "B2 chain with H165N", "notes": "also called SaPdx2mut; SaPdx2_(H165N); source: E. coli Rosetta (DE3), purified (Ni-NTA, TEV cleavage, second Ni-NTA, SEC on Superdex 75)"}}, "key": {"SaPdx1": {"molecular_target": "T1, SaPdx1 (Staphylococcus aureus, UniProt Q2G0Q1)", "T1 construct": "gene pdxS; synthetic gene, E. coli Rosetta (DE3), N-terminal 6xHis (TRX)-TEV tag cleaved; 297 residues printed; hexamer/dodecamer, dodecamer active; assayed without Pdx2, with ammonium sulfate", "T1 sequence (Q2G0Q1 1-295)": "B1 chain", "experiment": "PLP Schiff base with Tris, absorbance […] nm", "type": "biochemical", "conditions": "with R5P (1 mM in standard mix) and 20 mM ammonium sulfate, 40 uM enzyme, 50 mM Tris-HCl pH 8, 150 mM NaCl, 37 °C; apparent; substrate inhibition at high G3P"}, "[1]": {"molecular_target": "T2, SaPLP synthase (SaPdx1 + SaPdx2) (Staphylococcus aureus, UniProt Q2G0Q1)", "T2 construct": "gene pdxS; wild-type complex of separately expressed subunits, E. coli Rosetta (DE3), N-terminal His tags TEV-cleaved; up to 24-mer, substoichiometric in Pdx2 at rest, 12:12 in catalysis; with Pyridoxal 5'-phosphate synthase subunit PdxT", "T2 sequence (Q2G0Q1 1-295)": "B1 chain", "T2 sequence (Q2G0Q0 1-186 partner)": "B2 chain", "experiment": "PLP Schiff base with Tris, absorbance […] nm", "type": "biochemical", "conditions": "with R5P (1 mM in standard mix) and 20 mM glutamine, 40 uM Pdx1 and 40 uM Pdx2, 50 mM Tris-HCl pH 8, 150 mM NaCl, 37 °C; apparent; substrate inhibition at high G3P"}, "[2]": {"molecular_target": "the molecule itself", "experiment": "SEC + other: dynamic light scattering; SaPdx1 purified in Tris-HCl buffer"}, "[3]": {"molecular_target": "B1", "experiment": "cell-based or functional assay"}, "[4]": {"molecular_target": "B1", "experiment": "SAXS; SEC-SAXS of the SaPdx1-SaPdx2 complexes (WT and mutant), 7 mg/ml, Superose 6 Increase 10/300; volume fractions of stoichiometries estimated with OLIGOMER from AF2-based models", "conditions": "both partners purified"}}, "note": "Substitutions are numbered along the chain they refer to. Numbers in names are those of the source."}
{"molecule": "O=C[C@H](O)COP(=O)(O)O", "note": "[glyceraldehyde 3-phosphate]", "values": [{"measurement": "Glyceraldehyde 3-phosphate / Ki", "setting": "SaPdx1", "value": "3300 ± 900", "unit": "µM"}, {"measurement": "Glyceraldehyde 3-phosphate / Ki", "setting": "[1]", "value": "1900 ± 900", "unit": "µM"}]}
{"molecule": "B1", "values": [{"measurement": "stoichiometry N", "setting": "[2]", "value": 6}]}
{"molecule": "B2", "values": [{"measurement": "increase in the apparent kcat/KM ratio of PLP synthesis (G3P varied) for the SaPLP complex compared to SaPdx1 + ammonia", "setting": "[3]", "value": 5.7, "unit": "fold"}, {"measurement": "increase in the apparent kcat/KM ratio of PLP synthesis (R5P varied) for the SaPLP complex compared to SaPdx1 + ammonia", "setting": "[3]", "value": "~21", "unit": "fold"}]}
{"molecule": "B3", "values": [{"measurement": "stoichiometry N", "setting": "[4]", "value": 1}]}
